In patent US20160311918A1, “Anti-Ron Monoclonal Antibodies as a Cytotoxic Drug Delivery System for Targeted Cancer Therapy” (TEXAS TECH UNIVERSITY SYSTEM, priority 2013, published 2016):

Columns and labels:
[1] = In vivo toxicity in athymic nude mice; set-up: species or system mouse
Method: FIGS. 6A to 6C show the toxicity of Zt/g4-DM1 in vivo. Body weight was measured every four days during the period of Zt/g4-DM1 treatment. FIG. 6A: Effect of multiple doses of Zt/g4-DM1 on mouse body weight was determined by administration of Zt/g4-DM1 at 1, 3, 7, 10, 15 mg/kg every four day with a total of 5 injections. Mice were weighed and monitored for a total of 31 days. FIG. 6B: Effect of a single dose of Zt/g4 at 20 mg/kg on mouse body weight was determined using mice bearing HT29, HCT116, or SW620-derived tumors. Body weight was monitored up to 28 days. FIG. 6C: Effect of high doses of Zt/G4-DM1 on mouse body weight was analyzed by tail vein injection at 20, 40 and 60 mg/kg to Balb/c mice. Mice were euthanized at day 21. In all cases, the average body weight of mice before Zt/g4-DM1 injection was 19.8±3.6 grams (5 mice per group) and set as 100%;
In vivo toxicity studies: Acute toxicity with maximum tolerated dose was determined in Balb/C mice (four mice per dose) by a single tail vein injection of Zt/g4-DM1 at 20, 40, and 60 mg/kg body weight. Toxicity associated with different therapeutic doses was evaluated in athymic nude mice bearing HT29 tumor xenograft (five mice per dose). […] Toxicity was assessed by observing mouse behavior, weight loss, and survival.
Toxic effect of Zt/g4-DM1 on mice. Three studies using two different types of mice were performed to study Zt/g4-DM1 on animal behavior and body weight. The first study addressed the impact of multi-doses of Zt/g4-DM1. Athymic nude mice were injected five times with 1, 3, 5, 7, 10, 15 mg/kg of Zt/g4-DM1 and monitored every four days for a total period of 31 days. […] The second study observed the effect of a single dose of Zt/g4-DM1 at 20 mg/kg in nude mice bearing tumors derived from HT29, HCT116, and SW620 cells. […] The third study involved a single-dose injection of Zt/g4-DM1 at 20, 40, and 60 mg/kg in Balb/c mice monitored for 24 days (FIG. 6C). […] Also, a moderate reduction of about 6% body weight was observed within the first four days after 60 mg/kg Zt/g4-DM1 injection. […]

RON = RON (Homo sapiens, UniProt Q04912); assay: Immunofluorescent localization of cytoplasmic RON in HT29 cells; type: cell-based; settings: 5 μg/ml, 6 h
Chain of RON (Q04912 310-1400 limits assumed): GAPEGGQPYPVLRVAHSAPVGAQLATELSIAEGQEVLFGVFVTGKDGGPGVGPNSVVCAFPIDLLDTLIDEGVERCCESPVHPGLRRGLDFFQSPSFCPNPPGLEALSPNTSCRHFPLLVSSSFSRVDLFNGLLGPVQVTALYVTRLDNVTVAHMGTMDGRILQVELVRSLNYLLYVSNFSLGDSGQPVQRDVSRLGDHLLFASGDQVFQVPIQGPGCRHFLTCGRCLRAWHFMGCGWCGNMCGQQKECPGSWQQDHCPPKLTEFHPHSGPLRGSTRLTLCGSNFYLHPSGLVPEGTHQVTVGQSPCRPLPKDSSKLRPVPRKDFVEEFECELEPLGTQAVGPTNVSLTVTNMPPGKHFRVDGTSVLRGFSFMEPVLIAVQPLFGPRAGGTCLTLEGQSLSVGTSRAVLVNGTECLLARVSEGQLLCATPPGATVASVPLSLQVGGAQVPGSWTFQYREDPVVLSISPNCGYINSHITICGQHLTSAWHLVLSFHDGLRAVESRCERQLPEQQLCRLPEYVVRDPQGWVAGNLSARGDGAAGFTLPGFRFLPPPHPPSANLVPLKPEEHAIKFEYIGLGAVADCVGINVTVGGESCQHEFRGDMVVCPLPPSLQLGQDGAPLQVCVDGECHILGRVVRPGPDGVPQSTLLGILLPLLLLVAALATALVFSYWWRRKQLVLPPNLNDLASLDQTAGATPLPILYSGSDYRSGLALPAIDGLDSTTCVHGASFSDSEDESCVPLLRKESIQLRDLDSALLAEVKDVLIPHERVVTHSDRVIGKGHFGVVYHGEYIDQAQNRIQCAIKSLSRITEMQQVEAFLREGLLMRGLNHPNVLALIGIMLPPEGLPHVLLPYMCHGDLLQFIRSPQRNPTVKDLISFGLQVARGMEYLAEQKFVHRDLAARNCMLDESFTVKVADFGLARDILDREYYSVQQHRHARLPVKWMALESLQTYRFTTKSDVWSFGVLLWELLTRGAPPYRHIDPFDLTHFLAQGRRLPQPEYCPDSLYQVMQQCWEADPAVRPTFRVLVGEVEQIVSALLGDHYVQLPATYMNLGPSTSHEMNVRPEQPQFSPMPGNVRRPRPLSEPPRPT
Chain of RON (Q04912 25-304 limits assumed): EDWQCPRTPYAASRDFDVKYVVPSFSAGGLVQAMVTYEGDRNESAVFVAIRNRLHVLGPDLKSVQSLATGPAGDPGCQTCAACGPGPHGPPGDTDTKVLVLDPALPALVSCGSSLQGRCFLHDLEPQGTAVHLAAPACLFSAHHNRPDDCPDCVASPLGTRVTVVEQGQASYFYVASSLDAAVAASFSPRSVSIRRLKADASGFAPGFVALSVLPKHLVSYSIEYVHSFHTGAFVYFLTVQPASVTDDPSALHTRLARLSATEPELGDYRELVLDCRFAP

cell surface RON = cell surface RON (Homo sapiens, UniProt Q04912); assay: Kinetic reduction of cell surface RON (endocytosis) in CRC cells; type: cell-based; set-up: We selected CRC cell lines HT29, HCT116, and SW620 expressing variable levels of RON as the cellular model; host or cells: HCT116, HT29, SW620; settings: for time required to induce 50% RON reduction (internalization efficacy): 37° C.
Chain of cell surface RON (Q04912 310-1400 limits assumed): as the sequence (Q04912 310-1400 limits assumed) above
Chain of cell surface RON (Q04912 25-304 limits assumed): as the sequence (Q04912 25-304 limits assumed) above
Method: FIGS. 2A to 2F show the binding and induction of RON endocytosis by Zt/g4-DM1 in CRC cells. FIG. 2A: Levels of RON expression by different CRC cell lines: Five CRC cells lines (1×10^6 cells/ml) in PBS were incubated at 4° C. with 5 μg/ml Zt/g4 for 60 min. […] matched mouse IgG was used as the control. Cell surface RON was quantitatively determined by the immunofluorescence assay using QIFKIT® reagents from DAKO (Carpentaria, Calif.) as detailed in Materials and Methods. FIG. 2B: Binding of Zt/g4-DM1 to human CRC cell lines: HCT116, HT29, and SW620 cells (1×10^5 cells) were incubated with 5 μg Zt/g4-DM1 or Zt/c1-DM1. Free Zt/g4 and Zt/c1 was used as the control. Fluorescence intensity from individual samples was determined by flow cytometric analysis. FIG. 2C: Kinetic reduction of cell surface RON: HCT116, HT29, and SW620 cells (1×10^6 cells per dish) were treated at 37° C. with 5 μg/ml of Zt/g4-DM1, collected at different time points, washed with acidic buffer to eliminate cell surface bound IgG, and then incubated with 1 μg/mL of anti-RON mAb 2F2 Immunofluorescence was analyzed by flow cytometer using FITC-coupled anti-mouse IgG Immunofluorescence from cells treated with Zt/g4-DM1 or Zt/c1-DM1 at 4° C. was set as 100%. Internalization efficiency was calculated as the time required to achieve 50% cell surface RON reduction. FIG. 2D: RON reduction analysis by Western blotting: Cellular proteins (50 μg per lane) from cells treated with 5 μg/ml of Zt/g4 or Zt/g4-DM1 for various times were separated in an 8% SDS-PAGE under reduced conditions and transferred to the membrane. RON was detected by rabbit anti-RON antibody followed enhanced chemiluminescent reagents. The same membrane was reprobed for actin as the loading control. FIG. 2E: Quantitative measurement of RON expression: The intensity of individual RON-β chains was determined by densitometric analysis. Internalization efficiency was calculated as the time required to achieve a 50% RON reduction. FIG. 2F: Immunofluorescent localization of cytoplasmic RON: HT29 cells (1×10^5 cells per chamber) were treated at 4° C. or 37° C. with 5 μg/ml of Zt/g4-DM1 or Zt/c1-DM1 for 6 h followed by FITC-coupled anti-mouse IgG. After cell fixation, immunofluorescence was detected using the BK70 Olympus microscope equipped with a fluorescence apparatus. LAMP1 was used as a marker for protein cytoplasmic localization. DAPI was used to stain nuclear DNA;
Zt/g4-DM1-induced RON endocytosis was studied, which is a process essential for delivering DM1 into CRC cells. Zt/g4-DM1 causes a progressive reduction of cell surface RON in a time-dependent manner in all three CRC cell lines tested (FIG. 2C). Less than 20% of RON remained on the cell surface after a 48 hour treatment. […] Thus, Zt/g4-DM1 is more efficient and potent in induction of RON endocytosis.

[2] = test system: human pancreatic cancer cells; assay: PDAC cell viability in combination with chemotherapeutics; type: cell-based; settings: in vitro, chemotherapeutics including gemcitabine
Method: In vitro cell viability and death assays: Cell viability after treatment of Zt/g4-DM1, chemotherapeutics, and their combinations was determined by the MTT assay. Cell death was determined by the trypan blue exclusion assay.
FIGS. 10A to 10D are graphs that show the effect of Zt/g4-DM1 on pancreatic cancer cell cycle, viability, and apoptotic death. […] FIG. 12 are graphs that show synergism between Zt/g4-DM1 and chemotherapeutics by isobolograms.

[3] = five injections of 1, 3, 5, 7, 10, 15 mg/kg, 31 days

B1: Zt/g4-DM1: anti-RON mouse mAb Zt/g4 conjugated to maytansinoid DM1 via non-reducible thioether linkage (SMCC), DAR about 4:1 (conjugate)
VH: EVQLQQSGAELVKPGASVKLSCTTSGFNIIDTYIHWVNQKPDQGLEWIGRIDPADGNRKSDPKFQVKATITVDTSSNTAYLQLSSLTSGDTAVYYCARGYGNLNAMDSWGQGTSVTVSS
VL: DIQMNQSPSSLSASLGDTITITCHASQNINVWLNWYQQKPGNIPKLLIYKASNLHTGVPSRFSGSGSGTGFTLTISSLQPEDIATYYCQQGQSYPLTFGGGTKLEIK
average body weight [1, 3]: comparable to that of control mice with no differences
mouse behavior [1, 3]: behaved normally
behavior and body weight ([1]; single dose 20 mg/kg, tumor-bearing nude mice): No changes in behavior or body weight were observed
RON endocytosis by immunofluorescence (RON): intracellular localization of internalized RON occurred at 37 °C
time required to induce 50% RON reduction (internalization efficacy) (cell surface RON; HCT116, 5 μg/ml): 12.26 h
time required to induce 50% RON reduction (internalization efficacy) (cell surface RON; HT29, 5 μg/ml): 11.02 h
time required to induce 50% RON reduction (internalization efficacy) (cell surface RON; SW620, 5 μg/ml): 12.30 h
RON remaining on the cell surface (cell surface RON; after 48 hour treatment, 5 μg/ml, three CRC cell lines): Less than 20%
cell surface RON internalized (cell surface RON; within 48 h): > 80%
combination effect with chemotherapeutics on PDAC cell viability [2]: synergistic effect
